Assay results: the Immune Epitope Database (IEDB)

Biological target: HLA-A*33:03
Assay: IEDB peptide-MHC binding, purified MHC/competitive/fluorescence; filed as Kd, often an IC50 or EC50 that approximates it; ≥ and ≤ were set here for values at or beyond the usual limits of such assays
Details: source organism: Homo sapiens

Point of comparison: ETVERIFRR, Kd 1.77 nM. Against it:
- DAQRLHYYR — within 1.5-fold, 1.37 nM
- DIYNHRFHR — within 1.5-fold, 2.4 nM
- DTYLHRVAR — within 1.5-fold, 2.19 nM
- DVFPGPSFR — within 1.5-fold, 2.18 nM
- EFFIPRVGR — within 1.5-fold, 1.47 nM
- EFFSINAQR — 6.3-fold lower, 0.28 nM
- EFQDFTVPR — within 1.5-fold, 1.78 nM
- EFVDLYVPR — 2.9-fold higher, 5.11 nM
- ELFDFLHAR — within 1.5-fold, 1.68 nM
- ETFPQRHMR — 1.8-fold higher, 3.14 nM
- ETHFPFAIR — within 1.5-fold, 2.11 nM
- ETMPSPYGR — 1.8-fold higher, 3.1 nM
- ETYKYLYGR — within 1.5-fold, 1.79 nM
- ETYLHRIGR — within 1.5-fold, 1.69 nM
- EVASVWVER — 6.5-fold higher, 11.5 nM
- EVFEYIIFR — 2.6-fold higher, 4.69 nM
- EVINDYHFR — 3-fold higher, 5.33 nM
- EVKESPFFR — 2.1-fold higher, 3.63 nM
- EVYDIAFSR — within 1.5-fold, 1.29 nM
- FTWNINHAR — 1.8-fold higher, 3.22 nM
- FVFDRPVHR — 1.9-fold lower, 0.95 nM
- MLYGLIHAR — 1.9-fold higher, 3.45 nM
- MTILQTYFR — 1.8-fold higher, 3.19 nM
- NTLQLHRYR — 1.9-fold higher, 3.4 nM
- NTNDFVTLR — 2.8-fold higher, 4.87 nM
- QLYPRNFLR — 2.2-fold higher, 3.85 nM
- STARHLYLR — 1.9-fold lower, 0.92 nM
- SYIDRLAPR — within 1.5-fold, 1.43 nM
- TTTEHRFFR — within 1.5-fold, 1.99 nM
- VVAAVRWRR — 2.1-fold higher, 3.64 nM
- YVFPKPFNR — within 1.5-fold, 1.43 nM
- YVQRFHYSR — within 1.5-fold, 1.37 nM
